Laboratory results taken from US20150290319A1 (EMERGENT BIOSOLUTIONS CANADA, published 2015).

B1: CAN46G13a (antibody, V domains shown)
VH: DVQLQESGPGLVKPSQSLSLTCTVTGYSITSDSAWNWIRQFPGNNLEWMGYISYSGSTSYNPSLKSRISITRDTSKNQFFLQLNSVTTEDTATYYCARRSRVSFYFDYWGQGTTLTVSS
VL: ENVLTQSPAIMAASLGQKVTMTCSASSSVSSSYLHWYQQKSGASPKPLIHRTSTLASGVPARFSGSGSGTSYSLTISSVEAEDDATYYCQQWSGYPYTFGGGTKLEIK
notes: also called CAN46G13-1-8; murine CAN46G13a
B2: CAN46G24 (antibody, V domains shown)
VH: EVQLLQSGPELVKPGTSVKISCKASGYSFTGYYIHWVKQTHVKSLEWVGRIFPYNGAASYNQNFKGKATLTVDKSSSTAYMELHSLTSEDSAVYFCARWLRVYFDYWGQGTTLTVSS
VL: EIVLTQSPAIMSTSPGEKVTMSCSASSSVTYMHWYQQKSITSPKLWIYETSKLASGVPGRFSGSGSGNSYSLTISSMEAEDVATYYCFQGSGYPFTFGSGTKLEIK
notes: also called CAN46G24-2-3; murine CAN46G24
B3: CAN46G13 (antibody, V domains shown)
VH: EVQLLQSGPELVKPGTSVKISCKASGYSFTGYYIHWVKQTHVKSLEWVGRIFPYNGAASYNQNFKGKATLTVDKSSSTAYMELHSLTSEDSAVYFCARWLRVYFDYWGQGTTLTVSS
VL: EIVLTQSPAIMSTSPGEKVTMSCSASSSVTYMHWYQQKSITSPKLWIYETSKLASGVPGRFSGSGSGNSYSLTISSMEAEDVATYYCFQGSGYPFTFGSGTKLEIK
notes: also called CAN46G13-1-5; murine CAN46G13
B4: CAN46G4 (antibody, V domains shown)
VH: EVQLLQSGPELVKPGASVKISCKASDYSFTGYYMHWVKQSHVKSLEWIGRIFPYNGAASYNQNFKDKATLTVDKSSSTAYMELHSLTSEDSAVYYCTRWLRVYFDYWGQGTTLTVSS
VL: EKVLTQSPAIMSASPGEEVTMTCSASSSVSYMHWYQQKSSTSPKLWIYETSKLAFGVPGRFSGSGSGNSYSLTISSMEAEDVATYYCFQGSGYPFTFGSGTKLEVK
notes: also called CAN46G4-1-2; murine CAN46G4
B5: CAN46G19 (antibody, V domains shown)
VH: EVQLLQSGPELVKPGTSVKISCKASGYSFTGYYIHWVKQTHVKSLEWVGRIFPYNGAASYNQNFKGKATLTVDKSSTTAYMELHSLTSEDSAVYFCARWLRVYFDYWGQGTTLTVSS
VL: ENVLTQSPTIMSASPGEEVTMTCSASSSVTYMHWYQQKSITSPKLWIYETSKLASGVPGRFSGSGSGNSYSLTISSMEAEDVATYYCFQGSGYPFTFGSGTKLEIK
notes: also called CAN46G19-3-2; murine CAN46G19
B6: rehuCAN46G19 (antibody, V domains shown)
VH: EVQLVQSGAEVVKPGESVKISCKASGYSFTGYYIHWVKQTPGQSLEWVGRIFPYNGAASYNQNFKGKATLTVDKSTTTAYMELSSLRSEDSAVYFCARWLRVYFDYWGQGTTLTVSS
VL: ENVLTQSPSSMSASVGDRVTMTCSASSSVTYMHWYQQKPGKSPKLWIYETSKLASGVPSRFSGSGSGNDYSLTISSMQPEDVATYYCFQGSGYPFTFGQGTKLEIK
B7: rehuCAN46G24 (antibody, V domains shown)
VH: EVQLVQSGAEVVKPGESVKISCKASGYSFTGYYIHWVKQTPGQSLEWVGRIFPYNGAASYNQNFKGKATLTVDKSTSTAYMELSSLRSEDSAVYFCARWLRVYFDYWGQGTTLTVSS
VL: EIVLTQSPSSMSTSVGDRVTMSCSASSSVTYMHWYQQKPGKSPKLWIYETSKLASGVPSRFSGSGSGNDYSLTISSMQPEDVATYYCFQGSGYPFTFGQGTKLEIK
B8: huCAN46G19 (antibody, V domains shown)
VH: EVQLVQSGAEVKKPGESVKVSCKASGYSFTGYYIHWVKQAPGQGLEWVGRIFPYNGAASYNQNFKGKATLTVDKSSTTAYMELSSLRSEDTAVYFCARWLRVYFDYWGQGTTVTVSS
VL: ENVLTQSPSSLSASVGDRVTITCSASSSVTYMHWYQQKPGKAPKLWIYETSKLASGVPGRFSGSGSGNSYTFTISSLQPEDIATYYCFQGSGYPFTFGQGTKVEIK
notes: also called HuCAN46G19-3-2
B9: CAN33G1 (antibody, V domains shown)
VH: EVQLQQSGPDLVKPGASVKISCKASGYSFTGYYMHWVKQSHGKSLEWIGRVNPYNGDTNYNQNFKDKAILTVDKSASTAYMEFRSLTSEDSAVYYCTRSNWENYFDYWGQGSTLTVSS
VL: DIQLTQSSSSFSVSLGDRVTITCKASEDIYNRLAWYQQRPGNAPRLLISGATSLETGIPSRFSGSGSGKEYTLSIASLQTEDFVTYYCQQYWNIPTFGGGTRLEIK
notes: also called murine CAN33G1; CAN33 mAb
B10: huCAN46G4 (antibody, V domains shown)
VH: EVQLLQSGAEVKKPGSSVKISCKASDYSFTGYYMHWVKQAPGQGLEWIGRIFPYNGAASYNQNFKDKATLTVDKSSSTAYMELHSLRSEDTAVYYCTRWLRVYFDYWGQGTLVTVSS
VL: EKVLTQSPATLSLSPGERATMTCSASSSVSYMHWYQQKPGTSPKLWIYETSKLAFGVPARFSGSGSGNSYSLTISSLEPEDFAVYYCFQGSGYPFTFGQGTRLEIK
B11: rehuCAN46G4 (antibody, V domains shown)
VH: EVQLLQSGAEVVKPGSSVKISCKASGYSFTGYYMHWVKQAPGQGLEWIGRIFPYNGAASYNQNFKDKATLTADKSTNTAYMELSSLRSEDSAVYYCTRWLRVYFDYWGQGTLVTVSS
VL: EKVLTQSPATLSASPGERVTMSCSASSSVSYMHWYQQKPGQSPKLWIYETSKLAFGVPARFSGSGSGTDYSLTISSMEPEDFATYYCFQGSGYPFTFGQGTRLEIK

Experiments:
bovine serum albumin = target: T1, bovine serum albumin (bovine, UniProt P02769 25-607); assay: Western blot (FIGS. 4-6)
T1 construct: also called BSA; commercial BSA
T1 sequence (P02769 25-607 limits assumed): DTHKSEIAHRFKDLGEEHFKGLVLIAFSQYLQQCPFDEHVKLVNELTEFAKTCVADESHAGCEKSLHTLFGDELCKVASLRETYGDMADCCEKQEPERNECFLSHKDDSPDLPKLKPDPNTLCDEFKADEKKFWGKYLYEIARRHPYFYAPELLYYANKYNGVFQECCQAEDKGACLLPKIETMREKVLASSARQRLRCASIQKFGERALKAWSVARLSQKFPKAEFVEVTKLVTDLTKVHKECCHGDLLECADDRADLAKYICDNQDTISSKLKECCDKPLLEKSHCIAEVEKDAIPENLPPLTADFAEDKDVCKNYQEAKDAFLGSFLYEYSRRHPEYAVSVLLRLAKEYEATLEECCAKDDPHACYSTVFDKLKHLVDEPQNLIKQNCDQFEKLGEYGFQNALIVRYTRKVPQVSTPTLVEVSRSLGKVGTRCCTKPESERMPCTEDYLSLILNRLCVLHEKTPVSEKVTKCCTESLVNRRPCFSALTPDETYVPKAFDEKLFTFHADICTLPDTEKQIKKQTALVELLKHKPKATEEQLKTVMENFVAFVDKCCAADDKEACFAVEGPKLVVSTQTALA

[1] = target: T2, Clostridium difficile toxin A (whole toxin A) (Clostridium difficile, UniProt P16154 1-2710); assay: ELISA on coated whole toxin A (FIG. 1)
T2 construct: mature; also called TcdA
T2 sequence (P16154 whole entry): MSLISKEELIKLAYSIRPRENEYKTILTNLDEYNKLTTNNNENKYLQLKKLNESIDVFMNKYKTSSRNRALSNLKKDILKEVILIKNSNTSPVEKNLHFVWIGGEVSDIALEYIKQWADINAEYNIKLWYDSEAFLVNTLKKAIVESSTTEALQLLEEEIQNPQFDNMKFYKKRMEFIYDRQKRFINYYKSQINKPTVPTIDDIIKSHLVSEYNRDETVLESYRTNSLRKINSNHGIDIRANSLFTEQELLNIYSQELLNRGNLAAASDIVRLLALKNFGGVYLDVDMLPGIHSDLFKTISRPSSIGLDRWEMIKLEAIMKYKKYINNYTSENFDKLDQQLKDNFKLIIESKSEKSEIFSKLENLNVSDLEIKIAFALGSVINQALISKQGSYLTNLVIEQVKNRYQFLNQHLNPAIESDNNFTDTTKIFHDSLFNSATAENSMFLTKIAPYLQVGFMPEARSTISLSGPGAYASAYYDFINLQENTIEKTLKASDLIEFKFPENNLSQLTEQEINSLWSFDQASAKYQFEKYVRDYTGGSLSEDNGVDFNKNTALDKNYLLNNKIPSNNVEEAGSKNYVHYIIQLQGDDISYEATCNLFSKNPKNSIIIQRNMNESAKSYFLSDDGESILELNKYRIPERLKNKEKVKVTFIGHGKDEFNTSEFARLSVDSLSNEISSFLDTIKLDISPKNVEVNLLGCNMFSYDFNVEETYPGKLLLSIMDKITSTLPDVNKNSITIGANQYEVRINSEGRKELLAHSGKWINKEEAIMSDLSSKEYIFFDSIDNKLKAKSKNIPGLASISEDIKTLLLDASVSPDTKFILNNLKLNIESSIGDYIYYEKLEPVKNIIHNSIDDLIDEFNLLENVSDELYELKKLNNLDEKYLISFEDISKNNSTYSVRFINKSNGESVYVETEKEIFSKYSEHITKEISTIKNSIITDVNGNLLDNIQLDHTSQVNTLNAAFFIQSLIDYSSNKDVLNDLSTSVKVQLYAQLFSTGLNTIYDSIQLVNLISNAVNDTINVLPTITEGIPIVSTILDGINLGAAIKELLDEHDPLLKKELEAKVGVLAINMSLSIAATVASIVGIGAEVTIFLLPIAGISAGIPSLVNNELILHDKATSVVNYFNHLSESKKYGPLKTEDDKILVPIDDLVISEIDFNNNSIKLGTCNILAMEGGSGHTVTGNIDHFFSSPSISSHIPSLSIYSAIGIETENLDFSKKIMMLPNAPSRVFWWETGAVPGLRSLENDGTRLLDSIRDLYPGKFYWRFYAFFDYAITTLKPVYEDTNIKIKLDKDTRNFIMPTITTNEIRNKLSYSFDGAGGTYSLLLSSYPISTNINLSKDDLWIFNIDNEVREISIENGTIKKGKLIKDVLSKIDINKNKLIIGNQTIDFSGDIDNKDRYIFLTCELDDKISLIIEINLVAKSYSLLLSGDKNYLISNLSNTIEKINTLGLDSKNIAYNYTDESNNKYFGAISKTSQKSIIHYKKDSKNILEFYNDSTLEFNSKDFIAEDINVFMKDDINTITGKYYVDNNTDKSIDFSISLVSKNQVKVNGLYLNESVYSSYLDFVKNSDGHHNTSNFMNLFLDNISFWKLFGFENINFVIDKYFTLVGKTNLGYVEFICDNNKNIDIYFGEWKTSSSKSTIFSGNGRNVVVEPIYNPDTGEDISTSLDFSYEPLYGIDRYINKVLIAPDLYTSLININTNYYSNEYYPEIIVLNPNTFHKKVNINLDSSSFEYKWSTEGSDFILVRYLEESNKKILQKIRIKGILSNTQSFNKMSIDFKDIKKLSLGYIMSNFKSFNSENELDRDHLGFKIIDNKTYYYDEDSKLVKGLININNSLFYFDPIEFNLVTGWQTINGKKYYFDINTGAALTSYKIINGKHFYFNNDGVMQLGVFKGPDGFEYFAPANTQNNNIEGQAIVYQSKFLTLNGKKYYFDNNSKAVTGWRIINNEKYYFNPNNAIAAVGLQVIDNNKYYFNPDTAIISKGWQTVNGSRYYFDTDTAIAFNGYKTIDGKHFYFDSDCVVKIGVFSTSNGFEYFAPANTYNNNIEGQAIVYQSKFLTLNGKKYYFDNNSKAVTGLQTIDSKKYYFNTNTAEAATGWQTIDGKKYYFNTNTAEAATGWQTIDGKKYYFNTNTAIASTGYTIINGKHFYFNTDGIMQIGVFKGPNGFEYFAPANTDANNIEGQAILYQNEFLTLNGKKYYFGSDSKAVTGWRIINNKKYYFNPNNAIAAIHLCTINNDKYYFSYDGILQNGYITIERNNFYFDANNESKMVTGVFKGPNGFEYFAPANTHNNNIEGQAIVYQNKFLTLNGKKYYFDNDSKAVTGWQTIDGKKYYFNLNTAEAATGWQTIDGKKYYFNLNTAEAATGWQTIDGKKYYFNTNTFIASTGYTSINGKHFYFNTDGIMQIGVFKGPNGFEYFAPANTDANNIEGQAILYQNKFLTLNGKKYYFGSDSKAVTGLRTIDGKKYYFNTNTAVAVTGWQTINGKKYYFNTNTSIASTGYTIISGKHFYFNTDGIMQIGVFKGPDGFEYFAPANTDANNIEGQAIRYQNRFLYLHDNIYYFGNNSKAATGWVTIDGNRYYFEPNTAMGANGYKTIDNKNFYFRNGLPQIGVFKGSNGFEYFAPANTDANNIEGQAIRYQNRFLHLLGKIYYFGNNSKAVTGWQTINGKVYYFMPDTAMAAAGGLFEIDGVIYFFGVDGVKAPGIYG

[2] = target: T3, recombinant toxin B fragment 4 (Clostridium difficile, UniProt P18177 1777-2366); assay: Western blot, 2 ug protein per lane, mAb at 2 ug/ml
T3 sequence (P18177 1777-2366 limits assumed): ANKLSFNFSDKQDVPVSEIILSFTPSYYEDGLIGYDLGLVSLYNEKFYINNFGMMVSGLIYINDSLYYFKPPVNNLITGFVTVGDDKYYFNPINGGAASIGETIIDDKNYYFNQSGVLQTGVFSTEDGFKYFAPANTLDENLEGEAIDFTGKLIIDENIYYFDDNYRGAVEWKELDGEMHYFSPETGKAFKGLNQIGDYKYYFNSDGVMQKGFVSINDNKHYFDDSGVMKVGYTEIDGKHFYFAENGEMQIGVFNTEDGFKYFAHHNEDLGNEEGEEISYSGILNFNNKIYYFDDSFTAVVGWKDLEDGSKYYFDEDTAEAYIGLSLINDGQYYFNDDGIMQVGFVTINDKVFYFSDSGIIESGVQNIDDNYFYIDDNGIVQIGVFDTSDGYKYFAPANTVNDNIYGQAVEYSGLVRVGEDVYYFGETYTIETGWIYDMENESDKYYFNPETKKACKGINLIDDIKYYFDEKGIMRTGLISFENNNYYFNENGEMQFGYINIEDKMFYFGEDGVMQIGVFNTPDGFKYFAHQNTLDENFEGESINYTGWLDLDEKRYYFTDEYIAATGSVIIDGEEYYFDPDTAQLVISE

[3] = target: T4, Clostridium difficile toxin B (whole toxin B) (Clostridium difficile); assay: BLI (Octet QKe), mAb on SA sensor, toxin B analyte, model 2:1, first of three rows
T4 construct: also called TcdB; tcdB

[4] = target: T4, Clostridium difficile toxin B (whole …); assay: BLI (Octet QKe), mAb on SA sensor, toxin B analyte, model 2:1, third of three rows
[5] = target: T4, Clostridium difficile toxin B (whole …); assay: biolayer interferometry (Octet QKe); biotinylated antibody on streptavidin sensor, toxin B 50-0.78 nM
[6] = target: T4, Clostridium difficile toxin B (whole …); assay: cell-based or functional assay
[7] = target: T3, recombinant toxin B fragment 4; assay: ELISA, coated antigen, mAb 0.1-1 µg/ml (FIG. 1)
[8] = target: T5, recombinant toxin B fragment 1 (Clostridium difficile, UniProt P18177 1-546); assay: Western blot, 5 ug protein per lane, mAb at 5 ug/ml
T5 sequence (P18177 1-546 limits assumed): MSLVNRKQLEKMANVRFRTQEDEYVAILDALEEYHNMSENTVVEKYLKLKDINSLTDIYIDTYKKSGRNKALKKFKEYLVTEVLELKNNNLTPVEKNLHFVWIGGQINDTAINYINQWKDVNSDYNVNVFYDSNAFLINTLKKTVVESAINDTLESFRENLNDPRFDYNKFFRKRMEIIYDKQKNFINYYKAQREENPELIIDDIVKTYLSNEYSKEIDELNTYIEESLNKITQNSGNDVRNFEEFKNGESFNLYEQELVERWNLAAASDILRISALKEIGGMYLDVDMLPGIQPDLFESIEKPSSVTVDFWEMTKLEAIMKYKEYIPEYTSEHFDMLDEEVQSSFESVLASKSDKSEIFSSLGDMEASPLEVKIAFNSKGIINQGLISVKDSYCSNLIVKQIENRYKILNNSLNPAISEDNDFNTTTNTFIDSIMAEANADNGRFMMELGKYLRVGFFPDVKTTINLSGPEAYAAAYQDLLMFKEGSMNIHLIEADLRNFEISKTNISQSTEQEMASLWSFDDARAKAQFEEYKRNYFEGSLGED

[9] = target: T5, recombinant toxin B fragment 1; assay: Western blot, 2 ug protein per lane, mAb at 2 ug/ml
[10] = target: T3, recombinant toxin B fragment 4; assay: ELISA, coated antigen, antibody at 0.5 ug/ml, OD405 at 15 min
[11] = target: T5, recombinant toxin B fragment 1; assay: Western blot, 2 ug protein per lane, mAb at 2 ug/ml; remark: listed apart in the source
[12] = target: T4, Clostridium difficile toxin B (whole …); assay: cell-based or functional assay; remark: listed apart in the source
[13] = target: T4, Clostridium difficile toxin B (whole …); assay: BLI (Octet QKe), mAb on SA sensor, toxin B analyte, model 1:1
[14] = target: T4, Clostridium difficile toxin B (whole …); assay: BLI (Octet QKe), mAb on SA sensor, toxin B analyte, model 1:1; head prints KD (nM) but Kdis/Kon gives this number in M
[15] = target: T4, Clostridium difficile toxin B (whole …); assay: BLI (Octet QKe), mAb from CHOK1SV, toxin B; column kdis2 (1/s)
[16] = target: T4, Clostridium difficile toxin B (whole …); assay: BLI (Octet QKe), mAb on AHC sensor, toxin B analyte, model 2:1; head prints KD (nM) but Kdis/Kon gives this number in M
[17] = target: T5, recombinant toxin B fragment 1; assay: ELISA, coated antigen, antibody at 0.5 ug/ml, OD405 at 15 min
[18] = target: T4, Clostridium difficile toxin B (whole …); assay: BLI (Octet QKe), mAb on SA sensor, toxin B analyte, model 2:1
[19] = target: T4, Clostridium difficile toxin B (whole …); assay: BLI (Octet QKe), mAb on AHC sensor, toxin B analyte, model 2:1

Binder | binding result (bovine serum albumin) | binding result [1] | Kd [5] [nM] | koff [5] [s⁻¹] | kon [5] [M⁻¹ s⁻¹] | Mean EC50, neutralization of TcdB on HT-29 cells (xCELLigence) [6] [µg/mL] | other results
B1 | no binding (tested: 2 µg/ml to 5 µg/ml) | no binding (tested: 0.1 µg/ml to 1 µg/ml) | 8.57 | 0.00693 | 808000 |  | binding result [2]: no binding (tested: 2 ug/ml); koff [3]: 0.00357 s⁻¹; kon [3]: 678000 M⁻¹ s⁻¹; koff [4]: 0.00598 s⁻¹; kon [4]: 73700 M⁻¹ s⁻¹
B2 | no binding (tested: 2 µg/ml to 5 µg/ml) | no binding (tested: 0.1 µg/ml to 1 µg/ml) | 1.89 | 0.00028 | 149000 | 44.2 | binding result [7]: binds; binding result [8]: no binding (tested: 5 ug/ml)
B3 | no binding (tested: 2 µg/ml to 5 µg/ml) | no binding (tested: 0.1 µg/ml to 1 µg/ml) | 1.17 | 0.000149 | 128000 | 136 | binding result [9]: no binding (tested: 2 ug/ml); binding result [10]: binds
B4 | no binding (tested: 2 µg/ml to 5 µg/ml) | no binding (tested: 0.1 µg/ml to 1 µg/ml) | 1.41 | 0.000101 | 71800 | 142 | binding result [7]: binds; binding result [11]: no binding (tested: 2 ug/ml)
B5 | no binding (tested: 2 µg/ml to 5 µg/ml) | no binding (tested: 0.1 µg/ml to 1 µg/ml) | 1.27 | 0.000145 | 114000 | 142 | binding result [7]: binds; binding result [11]: no binding (tested: 2 ug/ml)
B6 |  |  |  |  |  |  | antibody concentration giving 100% neutralization of toxin B on CT-26 cells, mAb from CHO (FIG. 25) [12]: ~0.3 µg/mL; koff [13]: 0.00021 s⁻¹; kon [13]: 1.36e+06 M⁻¹ s⁻¹; Kd [14]: 0.154 nM
B7 |  |  |  |  |  |  | antibody concentration giving 100% neutralization of toxin B on CT-26 cells, mAb from CHO (FIG. 25) [12]: ~0.3 µg/mL; koff [15]: 1.2e-05 s⁻¹
B8 |  |  |  |  |  |  | Kd [16]: 0.178 nM
B9 |  |  | 10.9 | 0.000591 | 54400 |  | binding result [17]: no binding (tested: 0.5 ug/ml)
B10 |  |  |  |  |  |  | koff [18]: 0.000928 s⁻¹; kon [18]: 590000 M⁻¹ s⁻¹; koff [19]: 0.000754 s⁻¹; kon [19]: 2.12e+06 M⁻¹ s⁻¹
B11 |  |  |  |  |  |  | koff [13]: 0.000235 s⁻¹; kon [13]: 590000 M⁻¹ s⁻¹; Kd [14]: 0.399 nM
